Assay results from article PMC7841527.

Tests used:
[1] = target: FLAG-tagged HDAC4 p.Thr244Lys variant (human); experiment: co-IP; HEK293 cells co-transfected with FLAG-HDAC4 (native or variant) and HA-14-3-3β; ~48 h post-transfection cleared extracts immunoprecipitated with anti-FLAG antibody; western blot with anti-HA; blots quantified with ImageJ relative to HDAC4 and 14-3-3β loading controls
[2] = target: FLAG-tagged HDAC4 p.Glu247Gly variant (human); experiment: as above
Chain of FLAG-tagged HDAC4 p.Glu247Gly variant (human) (P56524 whole entry E247G): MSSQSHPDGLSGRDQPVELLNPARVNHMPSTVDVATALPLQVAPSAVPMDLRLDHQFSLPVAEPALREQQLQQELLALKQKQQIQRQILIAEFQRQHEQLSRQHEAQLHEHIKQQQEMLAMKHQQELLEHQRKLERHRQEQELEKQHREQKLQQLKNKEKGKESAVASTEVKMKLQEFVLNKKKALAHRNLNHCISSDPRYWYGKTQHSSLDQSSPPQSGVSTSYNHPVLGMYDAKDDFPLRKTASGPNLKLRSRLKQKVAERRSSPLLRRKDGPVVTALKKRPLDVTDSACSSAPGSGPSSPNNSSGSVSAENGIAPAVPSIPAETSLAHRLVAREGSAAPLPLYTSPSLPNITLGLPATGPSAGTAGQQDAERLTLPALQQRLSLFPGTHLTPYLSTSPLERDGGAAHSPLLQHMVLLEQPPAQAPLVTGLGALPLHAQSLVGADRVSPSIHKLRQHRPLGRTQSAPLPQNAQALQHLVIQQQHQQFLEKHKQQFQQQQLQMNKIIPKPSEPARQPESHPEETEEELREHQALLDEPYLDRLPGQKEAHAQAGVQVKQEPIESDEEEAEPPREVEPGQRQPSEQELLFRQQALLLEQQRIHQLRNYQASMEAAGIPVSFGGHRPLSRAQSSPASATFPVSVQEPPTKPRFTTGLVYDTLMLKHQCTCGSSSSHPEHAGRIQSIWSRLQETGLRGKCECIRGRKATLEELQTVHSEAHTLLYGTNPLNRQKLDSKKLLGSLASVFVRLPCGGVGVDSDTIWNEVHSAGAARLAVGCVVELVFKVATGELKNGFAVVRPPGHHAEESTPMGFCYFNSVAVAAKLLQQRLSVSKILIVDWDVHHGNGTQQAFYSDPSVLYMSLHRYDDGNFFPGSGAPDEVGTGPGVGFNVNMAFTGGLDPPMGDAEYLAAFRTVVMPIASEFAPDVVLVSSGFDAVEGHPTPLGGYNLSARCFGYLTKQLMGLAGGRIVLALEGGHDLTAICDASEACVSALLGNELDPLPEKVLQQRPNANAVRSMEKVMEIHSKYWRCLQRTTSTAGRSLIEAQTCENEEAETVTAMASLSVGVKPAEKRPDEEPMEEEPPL

Chain of FLAG-tagged HDAC4 p.Thr244Lys variant (human) (P56524 whole entry T244K): as the sequence (P56524 whole entry E247G) above, with T244K, G247E counted along it

Substance “14-3-3β (hemagglutinin [HA]-tagged) (from UniProt P31946 1-246) (natural protein)” has a fold reduction of binding compared to native HDAC4 [1] of 2 fold and a fold reduction of binding compared to native HDAC4 [2] of 2 fold.
